# Measured values published in patent US20260062463A1 (KANGYUAN BIOMEDICAL TECH DALIAN, published 2026).
# T1: AAV8 (adeno-associated virus 8, Assembled 60-mer capsid of VP1/VP2/VP3 (nested products of one cap gene), amine-coupled to a CM5 chip; the letters give one VP1 subunit only.)
# T1 construct: also called adeno-associated virus serotype 8
# T1 chain: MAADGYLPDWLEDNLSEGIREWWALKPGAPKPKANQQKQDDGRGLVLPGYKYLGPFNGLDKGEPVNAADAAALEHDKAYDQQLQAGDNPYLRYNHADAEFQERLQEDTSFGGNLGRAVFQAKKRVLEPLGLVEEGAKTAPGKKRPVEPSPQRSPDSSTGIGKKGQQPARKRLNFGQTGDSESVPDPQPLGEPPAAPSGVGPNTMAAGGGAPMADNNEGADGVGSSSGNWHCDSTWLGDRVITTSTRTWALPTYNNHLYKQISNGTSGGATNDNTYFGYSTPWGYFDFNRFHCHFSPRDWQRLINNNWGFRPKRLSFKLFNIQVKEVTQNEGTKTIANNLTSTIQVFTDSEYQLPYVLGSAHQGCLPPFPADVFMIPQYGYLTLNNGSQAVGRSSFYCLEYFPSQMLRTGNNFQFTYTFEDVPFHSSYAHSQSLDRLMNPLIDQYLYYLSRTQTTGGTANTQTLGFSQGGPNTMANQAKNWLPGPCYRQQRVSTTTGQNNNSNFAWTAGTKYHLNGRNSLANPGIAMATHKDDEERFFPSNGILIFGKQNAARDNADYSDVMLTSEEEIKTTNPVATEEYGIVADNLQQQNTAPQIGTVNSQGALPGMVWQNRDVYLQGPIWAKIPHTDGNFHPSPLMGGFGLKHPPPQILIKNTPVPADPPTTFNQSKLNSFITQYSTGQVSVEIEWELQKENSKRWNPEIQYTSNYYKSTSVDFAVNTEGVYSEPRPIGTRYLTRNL
# B1: A4-D8 (bispecific antibody)
# chain: VQLQESGGGLVQPGGSLRLSCAASGSRFSLNTMGWYRQAPGKQRELVATVTRGGSTNYADSVKGRFTISRDNAKNTVYLQMNSLRPEDTAVYYCHVDELRESGWTTSNLWGQGTQVTVSSGGGGSGGGGSGGGGSVQLQESGGGLVQPGGSLRLSCAASGSRFSLNTMGWYRQAPGKQRELVATVTRGGSTNYADFVKGRFTISRDNAKNTVYLQMNSLRPEDTAVYYCHVDELRESGWTTSNLWGQGTQVTVSSGGGGSGGGGSGGGGSVQLQESGGGLVHSGGSLRLSCAASGSMFSLNTMGWYRQAPGKQRELVATITRGGGTSYADSVKGRFTISRDNAKNTVYLQMNSLRPEDTAVYYCHVDELRQSSWTTSNLWGQGTQVTVSSGGGGSGGGGSGGGGSVQLQESGGGLVQPGGSLRLSCAASGSRFSLNTMGWYRQAPGKQRELVATVTRGGSTNYADFVKGRFTISRDNAKNTVYLQMNSLRPEDTAVYYCHVDELRESGWTTSNLWGQGTQVTVSS
# B2: A4-D9 (bispecific antibody)
# chain: VQLQESGGGLVHSGGSLRLSCAASGSMFSLNTMGWYRQAPGKQRELVATITRGGGTSYADSVKGRFTISRDNAKNTVYLQMNSLRPEDTAVYYCHVDELRQSSWTTSNLWGQGTQVTVSSGGGGSGGGGSGGGGSVQLQESGGGLVQPGGSLRLSCAASGSRFSLNTMGWYRQAPGKQRELVATVTRGGSTNYADFVKGRFTISRDNAKNTVYLQMNSLRPEDTAVYYCHVDELRESGWTTSNLWGQGTQVTVSSGGGGSGGGGSGGGGSVQLQESGGGLVQPGGSLRLSCAASGSRFSLNTMGWYRQAPGKQRELVATVTRGGSTNYADFVKGRFTISRDNAKNTVYLQMNSLRPEDTAVYYCHVDELRESGWTTSNLWGQGTQVTVSSGGGGSGGGGSGGGGSVQLQESGGGLVQTGGSLRLSCAASGRAFSLNTMGWYRQAPGKWRELVATVTRGGSTNYAGSVKGRFTISRDNAKNTVYLQMNNLRPEDTAVYYCHVDEVRESSWTTSNLWGQGTQVTVSS
# B3: A4-D6 (bispecific antibody)
# chain: VQLQESGGGLVQTGGSLRLSCAASGRAFSLNTMGWYRQAPGKWRELVATVTRGGSTNYAGSVKGRFTISRDNAKNTVYLQMNNLRPEDTAVYYCHVDEVRESSWTTSNLWGQGTQVTVSSGGGGSGGGGSGGGGSVQLQESGGGLVQTGGSLRLSCAASGRAFSLNTMGWYRQAPGKWRELVATVTRGGSTNYAGSVKGRFTISRDNAKNTVYLQMNNLRPEDTAVYYCHVDEVRESSWTTSNLWGQGTQVTVSSGGGGSGGGGSGGGGSVQLQESGGGLVQPGGSLRLSCAASGSIFTINSMGWYRQAPGKWRELVATVTRGGNTNYANSVKGRFTISRDNAKNTVYLQMNTLRPEDTAVYYCHLDEVRDSSWTTSNLWGQGTQVTVSSGGGGSGGGGSGGGGSVQLQESGGGLVQPGGSLRLSCAASGSIFSINSMGWYRQAPGKWRELVATVTRGGSTNYANSVKGRFTISRDNAKNTVYLQMNTLRPEDTAVYYCHLDEVRDSSWTTSNLWGQGTQVTVSS
# B4: A4-D11 (other)
# chain: VQLQESGGGLVQPGGSLRLSCAASGRGFSINTMGWYRQAPGKQRELVAAVTRGGTTNYADSVKGRFTISRDNAKNTVYLQMNSLRPEDTAVYYCHVDEVRQSSWTTSNLWGQGTQVTVSSGGGGSGGGGSGGGGSVQLQESGGGLVQPGGSLRLSCAASGSIFSINTMGWYRQAPGKQRELVAAVTRGGSTNYADSVKGRFTISRDNAKNTVYLQMNSLRPEDTAVYYCHVDEVRQSSWTTSNLWGQGTQVTVSSGGGGSGGGGSGGGGSVQLQESGGGLVQPGGSLRLSCAASGSIFIINTMGWYRRAPGKQRELVAAVTRGGSTNYADSVKGRFTISRDNAKNTVYLQMNSLRPEDTAVYYCHVDEVRQSSWTTSNLWGQGTQVTVSSGGGGSGGGGSGGGGSVQLQESGGGLVQPGGSLRLSCAASGSSFVINTMGWYRQAPGKQRELVAAVTRGGSTNYADSVKGRFTISRDNAKNTVYLQMNSLRPEDTAVYYCHVDEVRQSSWTTSNLWGQGTQVTVSS
# B5: A4-D7 (bispecific antibody)
# chain: VQLQESGGGLVQTGGSLRLSCAASGRAFSLNTMGWYRQAPGKWRELVATVTRGGSTNYAGSVKGRFTISRDNAKNTVYLQMNNLRPEDTAVYYCHVDEVRESSWTTSNLWGQGTQVTVSSGGGGSGGGGSGGGGSVQLQESGGGLVQPGGSLRLSCAASGSIFTINSMGWYRQAPGKWRELVATVTRGGNTNYANSVKGRFTISRDNAKNTVYLQMNTLRPEDTAVYYCHLDEVRDSSWTTSNLWGQGTQVTVSSGGGGSGGGGSGGGGSVQLQESGGGLVQPGGSLRLSCAASGSIFSINSMGWYRQAPGKWRELVATVTRGGSTNYANSVKGRFTISRDNAKNTVYLQMNTLRPEDTAVYYCHLDEVRDSSWTTSNLWGQGTQVTVSSGGGGSGGGGSGGGGSVQLQESGGGLVQTGGSLRLSCAASGRAFSLNTMGWYRQAPGKWRELVATVTRGGSTNYAGSVKGRFTISRDNAKNTVYLQMNNLRPEDTAVYYCHVDEVRESSWTTSNLWGQGTQVTVSS
# B6: A4-D1 (VHH)
# chain: VQLQESGGGLAQAGGSLRLSCAASGRGFSINTMGWYRQAPGKQRELVAAVTRGGTTNYADSVKGRFTISRDNAKNTVYLQMNSLRPEDTAVYYCHVDEVRQSSWTTSNLWGQGTQVTVSSGGGGSGGGGSGGGGSVQLQESGGGLAQAGGSLRLSCAASGRGFSINTMGWYRQAPGKQRELVAAVTRGGTTNYADSVKGRFTISRDNAKNTVYLQMNSLRPEDTAVYYCHVDEVRQSSWTTSNLWGQGTQVTVSSGGGGSGGGGSGGGGSVQLQESGGGLAQAGGSLRLSCAASGRGFSINTMGWYRQAPGKQRELVAAVTRGGTTNYADSVKGRFTISRDNAKNTVYLQMNSLRPEDTAVYYCHVDEVRQSSWTTSNLWGQGTQVTVSSGGGGSGGGGSGGGGSVQLQESGGGLAQAGGSLRLSCAASGRGFSINTMGWYRQAPGKQRELVAAVTRGGTTNYADSVKGRFTISRDNAKNTVYLQMNSLRPEDTAVYYCHVDEVRQSSWTTSNLWGQGTQVTVSS
# B7: A4-D3 (VHH)
# chain: VQLQESGGGLAQAGGSLRLSCAASGRGFSINTMGWYRQAPGKQRELVAAVTRGGTTNYADSVKGRFTISRDNAKNTVYLQMNSLRPEDTAVYYCHVDEVRQSSWTTSNLWGQGTQVTVSSGGGGSGGGGSGGGGSVQLQESGGGLAQAGGSLRLSCAASGRGFSINTMGWYRQAPGKQRELVAAVTRGGTTNYADSVKGRFTISRDNAKNTVYLQMNSLRPEDTAVYYCHVDEVRQSSWTTSNLWGQGTQVTVSSGGGGSGGGGSGGGGSVQLQESGGGLAQAGGSLRLSCAASGRGFSINTMGWYRQAPGKQRELVAAVTRGGTTNYADSVKGRFTISRDNAKNTVYLQMNSLRPEDTAVYYCHVDEVRQSSWTTSNLWGQGTQVTVSSGGGGSGGGGSGGGGSVQLQESGGGLVQPGGSLRLSCAASGRGFSINTMGWYRQAPGKQRELVAAVTRGGTTNYADSVKGRFTISRDNAKNTVYLQMNSLRPEDTAVYYCHVDEVRQSSWTTSNLWGQGTQVTVSS
# Legend:
# AAV8 = target: T1, AAV8; assay: SPR, AAV amine-coupled to CM5 chip
# AAV5 = target: T2, AAV5 (adeno-associated virus 5, Assembled 60-mer capsid of VP1/VP2/VP3 (nested products of one cap gene), amine-coupled to a CM5 chip; the letters give one VP1 subunit only.); assay: SPR, AAV amine-coupled to CM5 chip
# T2 construct: also called adeno-associated virus serotype 5
Binder,Kd (AAV8) [nM],koff (AAV8) [s⁻¹],kon (AAV8) [M⁻¹ s⁻¹],Kd (AAV5) [nM],koff (AAV5) [s⁻¹],kon (AAV5) [M⁻¹ s⁻¹]
B1,0.228,1.1e-05,48200,,,
B2,0.318,9.9e-06,31100,,,
B3,1.02,1.63e-05,16000,,,
B4,0.319,1.5e-05,47000,,,
B5,1.41,1.79e-05,12700,,,
B6,,,,0.0576,2.2e-06,38200
B7,,,,0.209,3.6e-06,17300
